Measured values as given in US20240109972A1, “ANTIBODY AND TAXANE COMBINATION THERAPY” (Genmab A/S, priority 2020, published 2024).

Test: GEN1046 in combination with docetaxel in metastatic NSCLC subjects, adverse effects
Type: in vivo, human
Experimental: Docetaxel was administered at a dose of 55 mg/m^2 or 75 mg/m^2 depending on the number of prior Dose Limiting Toxicities observed. The maximum tested dose of docetaxel was be 75 mg/m^2.
Subjects with a histological or cytological diagnosis of non-squamous NSCLC must not have an EGFR-sensitizing mutation and/or ALK translocation/ROS1 rearrangement. EGFR sensitizing mutations are those mutations that are amenable to treatment with an approved TKI. Documentation of EGFR and ALK status should be available per local assessment.

[1] = GEN1046 in combination with Docetaxel

GEN1046: PD-L1×4-1BB bispecific antibody: PD-L1-547-FEAL combined with CD137-009-HC7LC2-FEAR (SEQ ID NOs: 1, 5, 21, 19; 8, 12, 22, 20)
Anemia Grade 5, GEN1046-related (GEN1046 + 75 mg/m^2 Docetaxel): 0 | Blood thyroid stimulating hormone abnormal Grade 1, GEN1046-related (GEN1046 + 75 mg/m^2 Docetaxel): 1 | Blood thyroid stimulating hormone abnormal Grade 2, GEN1046-related (GEN1046 + 75 mg/m^2 Docetaxel): 0 | Blood thyroid stimulating hormone abnormal Grade 3, GEN1046-related (GEN1046 + 75 mg/m^2 Docetaxel): 0 | Blood thyroid stimulating hormone abnormal Grade 4, GEN1046-related (GEN1046 + 75 mg/m^2 Docetaxel): 0 | Blood thyroid stimulating hormone abnormal Grade 5, GEN1046-related (GEN1046 + 75 mg/m^2 Docetaxel): 0 | Cough Grade 1, GEN1046-related (GEN1046 + 75 mg/m^2 Docetaxel): 1 | Cough Grade 2, GEN1046-related (GEN1046 + 75 mg/m^2 Docetaxel): 0 | Cough Grade 3, GEN1046-related (GEN1046 + 75 mg/m^2 Docetaxel): 0 | Cough Grade 4, GEN1046-related (GEN1046 + 75 mg/m^2 Docetaxel): 0 | Cough Grade 5, GEN1046-related (GEN1046 + 75 mg/m^2 Docetaxel): 0 | Dry mouth Grade 1, GEN1046-related (GEN1046 + 75 mg/m^2 Docetaxel): 1 | Dry mouth Grade 2, GEN1046-related (GEN1046 + 75 mg/m^2 Docetaxel): 0 | Dry mouth Grade 3, GEN1046-related (GEN1046 + 75 mg/m^2 Docetaxel): 0 | Dry mouth Grade 4, GEN1046-related (GEN1046 + 75 mg/m^2 Docetaxel): 0 | Dry mouth Grade 5, GEN1046-related (GEN1046 + 75 mg/m^2 Docetaxel): 0 | Dyspnea Grade 1, GEN1046-related (GEN1046 + 75 mg/m^2 Docetaxel): 1 | Dyspnea Grade 2, GEN1046-related (GEN1046 + 75 mg/m^2 Docetaxel): 2 | Dyspnea Grade 3, GEN1046-related (GEN1046 + 75 mg/m^2 Docetaxel): 0 | Dyspnea Grade 4, GEN1046-related (GEN1046 + 75 mg/m^2 Docetaxel): 0 | Dyspnea Grade 5, GEN1046-related (GEN1046 + 75 mg/m^2 Docetaxel): 0 | Fatigue Grade 1, GEN1046-related (GEN1046 + 75 mg/m^2 Docetaxel): 1 | Fatigue Grade 2, GEN1046-related (GEN1046 + 75 mg/m^2 Docetaxel): 2 | Fatigue Grade 3, GEN1046-related (GEN1046 + 75 mg/m^2 Docetaxel): 0 | Fatigue Grade 4, GEN1046-related (GEN1046 + 75 mg/m^2 Docetaxel): 0 | Fatigue Grade 5, GEN1046-related (GEN1046 + 75 mg/m^2 Docetaxel): 0 | Gastroesophageal reflux disease Grade 1, GEN1046-related (GEN1046 + 75 mg/m^2 Docetaxel): 1 | Gastroesophageal reflux disease Grade 2, GEN1046-related (GEN1046 + 75 mg/m^2 Docetaxel): 0 | Gastroesophageal reflux disease Grade 3, GEN1046-related (GEN1046 + 75 mg/m^2 Docetaxel): 0 | Gastroesophageal reflux disease Grade 4, GEN1046-related (GEN1046 + 75 mg/m^2 Docetaxel): 0 | Gastroesophageal reflux disease Grade 5, GEN1046-related (GEN1046 + 75 mg/m^2 Docetaxel): 0 | Hiccups Grade 1, GEN1046-related (GEN1046 + 75 mg/m^2 Docetaxel): 0 | Hiccups Grade 2, GEN1046-related (GEN1046 + 75 mg/m^2 Docetaxel): 1 | Hiccups Grade 3, GEN1046-related (GEN1046 + 75 mg/m^2 Docetaxel): 0 | Hiccups Grade 4, GEN1046-related (GEN1046 + 75 mg/m^2 Docetaxel): 0 | Hiccups Grade 5, GEN1046-related (GEN1046 + 75 mg/m^2 Docetaxel): 0 | Hyperglycemia Grade 1, GEN1046-related (GEN1046 + 75 mg/m^2 Docetaxel): 1 | Hyperglycemia Grade 2, GEN1046-related (GEN1046 + 75 mg/m^2 Docetaxel): 0 | Hyperglycemia Grade 3, GEN1046-related (GEN1046 + 75 mg/m^2 Docetaxel): 1 | Hyperglycemia Grade 4, GEN1046-related (GEN1046 + 75 mg/m^2 Docetaxel): 0 | Hyperglycemia Grade 5, GEN1046-related (GEN1046 + 75 mg/m^2 Docetaxel): 0 | Lipase increased Grade 1, GEN1046-related (GEN1046 + 75 mg/m^2 Docetaxel): 0 | Lipase increased Grade 2, GEN1046-related (GEN1046 + 75 mg/m^2 Docetaxel): 1 | Lipase increased Grade 3, GEN1046-related (GEN1046 + 75 mg/m^2 Docetaxel): 0 | Lipase increased Grade 4, GEN1046-related (GEN1046 + 75 mg/m^2 Docetaxel): 0 | Lipase increased Grade 5, GEN1046-related (GEN1046 + 75 mg/m^2 Docetaxel): 0 | Musculoskeletal chest pain Grade 1, GEN1046-related (GEN1046 + 75 mg/m^2 Docetaxel): 0 | Musculoskeletal chest pain Grade 2, GEN1046-related (GEN1046 + 75 mg/m^2 Docetaxel): 1 | Musculoskeletal chest pain Grade 3, GEN1046-related (GEN1046 + 75 mg/m^2 Docetaxel): 0 | Musculoskeletal chest pain Grade 4, GEN1046-related (GEN1046 + 75 mg/m^2 Docetaxel): 0 | Musculoskeletal chest pain Grade 5, GEN1046-related (GEN1046 + 75 mg/m^2 Docetaxel): 0 | Nausea Grade 1, GEN1046-related (GEN1046 + 75 mg/m^2 Docetaxel): 0 | Nausea Grade 2, GEN1046-related (GEN1046 + 75 mg/m^2 Docetaxel): 1 | Nausea Grade 3, GEN1046-related (GEN1046 + 75 mg/m^2 Docetaxel): 0 | Nausea Grade 4, GEN1046-related (GEN1046 + 75 mg/m^2 Docetaxel): 0 | Nausea Grade 5, GEN1046-related (GEN1046 + 75 mg/m^2 Docetaxel): 0 | Neutrophil count decreased Grade 1, GEN1046-related (GEN1046 + 75 mg/m^2 Docetaxel): 0 | Neutrophil count decreased Grade 2, GEN1046-related (GEN1046 + 75 mg/m^2 Docetaxel): 0 | Neutrophil count decreased Grade 3, GEN1046-related (GEN1046 + 75 mg/m^2 Docetaxel): 0 | Neutrophil count decreased Grade 4, GEN1046-related (GEN1046 + 75 mg/m^2 Docetaxel): 1 | Neutrophil count decreased Grade 5, GEN1046-related (GEN1046 + 75 mg/m^2 Docetaxel): 0 | Palmar plantar erythrodysesthesia Syndrome (PPE) Grade 1, GEN1046-related (GEN1046 + 75 mg/m^2 Docetaxel): 1 | Palmar plantar erythrodysesthesia Syndrome (PPE) Grade 2, GEN1046-related (GEN1046 + 75 mg/m^2 Docetaxel): 0 | Palmar plantar erythrodysesthesia Syndrome (PPE) Grade 3, GEN1046-related (GEN1046 + 75 mg/m^2 Docetaxel): 0 | Palmar plantar erythrodysesthesia Syndrome (PPE) Grade 4, GEN1046-related (GEN1046 + 75 mg/m^2 Docetaxel): 0 | Palmar plantar erythrodysesthesia Syndrome (PPE) Grade 5, GEN1046-related (GEN1046 + 75 mg/m^2 Docetaxel): 0 | Pruritus Grade 1, GEN1046-related (GEN1046 + 75 mg/m^2 Docetaxel): 1 | Pruritus Grade 2, GEN1046-related (GEN1046 + 75 mg/m^2 Docetaxel): 0 | Pruritus Grade 3, GEN1046-related (GEN1046 + 75 mg/m^2 Docetaxel): 0 | Pruritus Grade 4, GEN1046-related (GEN1046 + 75 mg/m^2 Docetaxel): 0 | Pruritus Grade 5, GEN1046-related (GEN1046 + 75 mg/m^2 Docetaxel): 0 | Total treated subjects with related TEAEs Grade 1, GEN1046-related (GEN1046 + 75 mg/m^2 Docetaxel): 4 | Total treated subjects with related TEAEs Grade 2, GEN1046-related (GEN1046 + 75 mg/m^2 Docetaxel): 4 | Total treated subjects with related TEAEs Grade 3, GEN1046-related (GEN1046 + 75 mg/m^2 Docetaxel): 2 | Total treated subjects with related TEAEs Grade 4, GEN1046-related (GEN1046 + 75 mg/m^2 Docetaxel): 1 | Total treated subjects with related TEAEs Grade 5, GEN1046-related (GEN1046 + 75 mg/m^2 Docetaxel): 0 | Vomiting Grade 1, GEN1046-related (GEN1046 + 75 mg/m^2 Docetaxel): 1 | Vomiting Grade 2, GEN1046-related (GEN1046 + 75 mg/m^2 Docetaxel): 0 | Vomiting Grade 3, GEN1046-related (GEN1046 + 75 mg/m^2 Docetaxel): 0 | Vomiting Grade 4, GEN1046-related (GEN1046 + 75 mg/m^2 Docetaxel): 0 | Vomiting Grade 5, GEN1046-related (GEN1046 + 75 mg/m^2 Docetaxel): 0 | Hepatotoxicity [1]: No reported drug-related hepatoxicities | Immune-related toxicities [1]: None reported | Serious adverse events related to GEN1046 (dose limiting toxicity period, in combination with Docetaxel): No serious adverse events | Dose Limiting Toxicity (with Docetaxel 55 mg/m^2 or 75 mg/m^2): No Dose Limiting Toxicity reported
